In this assay the target is T1, GST-GP73 (aa36-401) (human, UniProt Q8NBJ4 36-401).
T1 construct: also called recombinant GST-GP73; GST-fused GP73; source: E. coli BL21, purified (glutathione Sepharose 4B)
T1 sequence (looked up): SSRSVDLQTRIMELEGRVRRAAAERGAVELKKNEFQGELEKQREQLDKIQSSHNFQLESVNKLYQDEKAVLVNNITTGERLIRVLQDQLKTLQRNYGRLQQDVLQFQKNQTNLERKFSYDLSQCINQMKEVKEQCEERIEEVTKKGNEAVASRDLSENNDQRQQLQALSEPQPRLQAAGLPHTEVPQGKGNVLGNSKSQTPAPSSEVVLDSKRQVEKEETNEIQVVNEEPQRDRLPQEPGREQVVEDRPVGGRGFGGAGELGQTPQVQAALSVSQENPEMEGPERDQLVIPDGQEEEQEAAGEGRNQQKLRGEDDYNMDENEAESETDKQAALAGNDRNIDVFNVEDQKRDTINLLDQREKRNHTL
Kind of assay: pull-down; purified MBP, MBP-M11 or MBP-T6CC (20 μg) with 10 μg GST or 20 μg GST-GP73 overnight at 4°C; WB (S4A Fig). The note with it: both partners purified.

B1: MBP-M11 (domain or fragment, UniProt Q7Z434 1-90, looked up)
chain: MPFAEDKTYKYICRNFSNFCNVDVVEILPYLPCLTARDQDRLRATCTLSGNRDTLWHLFNTLQRRPGWVEYFIAALRGCELVDLADEVASISASTSLGMGPCHGPEENEYKSEGTFGIHVAENPSIQLLEGNPGPPADPDGGPRPQADRKFQEREVPCHRPSPGALWLQVAVTGVLVVTLLVVLYRRRLH
notes: also called MBP-fused M11; source: E. coli BL21, purified (amylose resin)
For the molecule B1, the binding result is recorded as “binds”.

These data come from paper PMC5398727, “GP73 represses host innate immune response to promote virus replication by facilitating MAVS and TRAF6 degradation” (PLoS Pathogens, 2017).
